Values belong to the molecule of their own block, whether it stands above or below them.
Key:
CXCR4 [1] = biological target: T1, CXCR4 (Homo sapiens, UniProt P61073); assay: [125I]-CXCL12 competition binding on membranes from HEK293T cells transiently expressing CXCR4; conditions: for Rel. potency, relative to monovalent 238D2 / Rel. potency, relative to monovalent 238D4: [125I]-CXCL12 displacement; for Rel. potency, relative to monovalent 238D2: potency relative to those of monovalent 238D2; for Rel. potency, relative to monovalent 238D4: potency relative to those of monovalent 238D4; for Displacem. (%) of [125I]-CXCL12 (maximal displacement), bivalent Nanobodies / pKi, [125I]-CXCL12, bivalent Nanobodies: mean ± S.E.M.
Protocol: (§1) HEK293T cells were maintained at 37° C. in a humidified 5% CO2, 95% air atmosphere in Dulbecco's modified Eagle's medium (DMEM) containing 2 mM L-glutamine, 50 IU/ml penicillin, 50 μg/ml streptomycin, and 10% (v/v) fetal calf serum. Jurkat cells were cultured in a humidified 5% CO2, 95% air atmosphere in a 1:1 mixture of Dulbecco's modified Eagle's medium (DMEM) and Ham's F12 medium containing 2 mM L-glutamine, 50 IU/ml penicillin, 50 μg/ml streptomycin, and 10% (v/v) fetal calf serum. […] [^125 I]-Labelling— Radiolabeling of Nanobodies with ^125I was performed using the Iodo-gen method (Pierce, Rockford, Ill.) according to the manufacturer's protocol. ^125I-labeled Nanobodies was separated from free iodine (>99%) using a Sephadex G-25 gel filtration column (Amersham Biosciences, Piscataway, N.J.). […] Competition Binding Assays— Membranes from HEK293T cells transiently expressing CXCR3 or CXCR4 were prepared 48 h after transfection as follows. Cells were washed and scraped from the cell culture dishes with ice-cold PBS containing 1 mm EDTA. The scraped cells were pelleted at 1500×g for 10 min at 4° C. The pellet was washed and then resuspended in ice-cold membrane buffer (15 mM Tris, pH 7.5, 1 mM EGTA, 0.3 mM EDTA, and 2 mM MgCl2). The cell suspension was homogenized by 10 strokes at 1200 rpm using a Teflon-glass homogenizer and rotor and further subjected to three freeze-thaw cycles using liquid nitrogen. Membranes were separated by centrifugation at 40,000 g for 25 min at 4° C. The membrane pellet was washed and resuspended in ice-cold Tris-sucrose buffer (20 mM Tris, pH 7.4, and 250 mM sucrose) and frozen in liquid nitrogen. The total protein was determined using a Bradford assay (Bio-Rad). […] Membranes were then harvested over polyethylenimine (0.5%)-treated Whatman GF/C filter plates and washed three times with ice cold binding buffer containing 500 mM NaCl. Plates were counted by liquid scintillation. Inositol Phosphate Accumulation Assay— 24 hours post transfection with pcDNA3.1-CXCR4 and pcDNA1-HA-mG {alpha} qi5 (see Verzijl et al, 2008 supra), 250.000 cells were seeded into 24-wells plates and labelled overnight using inositol-free minimal essential medium supplemented with 1 μCi myo-[2-^3H]-inositol. The next day, the cells were washed once to remove not incorporated myo-[2-^3H]-inositol. […] In agonist experiments, the cells were directly stimulated with test compounds and LiCl (10 mM) in assay buffer for 2 h at 37° C. The stimulation was stopped by aspirating the stimulation medium and adding ice-cold 10 mM formic acid. The accumulated inositol phosphates were isolated by anion exchange chromatography and counted by liquid scintillation. CRE Reporter Gene Assay— HEK239T cells were transfected with pCRE/β-galactosidase (Chen W, Shields T S, Stork P J S, Cone R D (1995) Anal Biochem 226:349-354) and plasmids (pcDEF3 or pcDNA3.1) encoding the indicated receptors. 40,000 transfected cells per well were seeded into 96 well plates and grown in DMEM supplemented with 10% fetal calf serum. The medium was replaced 32 h after transfection by serum-free DMEM supplemented with 0.5% bovine serum albumin and ligands as indicated. […] The β-galactosidase activity was determined by the measurement of absorption at 420 nm with a PowerwaveX340 plate reader (Bio-Tek Instruments Inc., Winooski, Vt.) after incubation with the assay buffer when the OD420 value for forskolin (3 μM) controls reached 0.4-0.6. Chemotaxis Assay— The chemotactic responsiveness of Jurkat 3D cells was assessed using ChemoTx™ plates (Receptor Technologies Ltd., Oxon, UK) in which a upper cell-containing compartment is separated from a lower chemoattractant-containing compartment by a polyvinylpyrollidone-free polycarbonate filter with 5-μm pores. Cells were harvested, washed and resuspended in RPMI containing 0.5% bovine serum albumin and then loaded to 150,000 cells per well in a volume of 25 μl into the upper compartment of the chemotaxis chamber.

[2] = system: Jurkat cells endogenously expressing CXCR4; assay: Chemotaxis assay (ChemoTx plates) with Jurkat cells towards CXCL12; format: cell-based; conditions: for inhibition of migration of Jurkat cells towards CXCL12: 300 pM CXCL12; for Imax (%), Chemotaxis, bivalent Nanobodies: Jurkat/0.3 nM CXCL12, mean ± S.E.M.; for pKi, antagonism of the chemoattractant effects of CXCL12: n=3
Protocol: HEK293T cells were maintained at 37° C. in a humidified 5% CO2, 95% air atmosphere in Dulbecco's modified Eagle's medium (DMEM) containing 2 mM L-glutamine, 50 IU/ml penicillin, 50 μg/ml streptomycin, and 10% (v/v) fetal calf serum. Jurkat cells were cultured in a humidified 5% CO2, 95% air atmosphere in a 1:1 mixture of Dulbecco's modified Eagle's medium (DMEM) and Ham's F12 medium containing 2 mM L-glutamine, 50 IU/ml penicillin, 50 μg/ml streptomycin, and 10% (v/v) fetal calf serum. […] [^125 I]-Labelling— Radiolabeling of Nanobodies with ^125I was performed using the Iodo-gen method (Pierce, Rockford, Ill.) according to the manufacturer's protocol. ^125I-labeled Nanobodies was separated from free iodine (>99%) using a Sephadex G-25 gel filtration column (Amersham Biosciences, Piscataway, N.J.). […] Competition Binding Assays— Membranes from HEK293T cells transiently expressing CXCR3 or CXCR4 were prepared 48 h after transfection as follows. Cells were washed and scraped from the cell culture dishes with ice-cold PBS containing 1 mm EDTA. The scraped cells were pelleted at 1500×g for 10 min at 4° C. The pellet was washed and then resuspended in ice-cold membrane buffer (15 mM Tris, pH 7.5, 1 mM EGTA, 0.3 mM EDTA, and 2 mM MgCl2). The cell suspension was homogenized by 10 strokes at 1200 rpm using a Teflon-glass homogenizer and rotor and further subjected to three freeze-thaw cycles using liquid nitrogen. Membranes were separated by centrifugation at 40,000 g for 25 min at 4° C. The membrane pellet was washed and resuspended in ice-cold Tris-sucrose buffer (20 mM Tris, pH 7.4, and 250 mM sucrose) and frozen in liquid nitrogen. The total protein was determined using a Bradford assay (Bio-Rad). Periplasmas (1:10) or ligands were pre-incubated with membranes in binding buffer (50 mM HEPES (pH 7.4), 1 mM CaCl2, 5 mM MgCl2, 100 mM NaCl, 0.5% bovine serum albumin) supplemented with 0.5% BSA for 1 h at 22° C. before the addition of [^125I]-CXCL12 (40 pM) or [^125I]-238D2 (3 nM) or [^125I]-238D4 (3 nM) for additional 2 h at 22° C. […] Membranes were then harvested over polyethylenimine (0.5%)-treated Whatman GF/C filter plates and washed three times with ice cold binding buffer containing 500 mM NaCl. Plates were counted by liquid scintillation. Inositol Phosphate Accumulation Assay— 24 hours post transfection with pcDNA3.1-CXCR4 and pcDNA1-HA-mG {alpha} qi5 (see Verzijl et al, 2008 supra), 250.000 cells were seeded into 24-wells plates and labelled overnight using inositol-free minimal essential medium supplemented with 1 μCi myo-[2-^3H]-inositol. The next day, the cells were washed once to remove not incorporated myo-[2-^3H]-inositol. […] In agonist experiments, the cells were directly stimulated with test compounds and LiCl (10 mM) in assay buffer for 2 h at 37° C. The stimulation was stopped by aspirating the stimulation medium and adding ice-cold 10 mM formic acid. The accumulated inositol phosphates were isolated by anion exchange chromatography and counted by liquid scintillation. CRE Reporter Gene Assay— HEK239T cells were transfected with pCRE/β-galactosidase (Chen W, Shields T S, Stork P J S, Cone R D (1995) Anal Biochem 226:349-354) and plasmids (pcDEF3 or pcDNA3.1) encoding the indicated receptors. 40,000 transfected cells per well were seeded into 96 well plates and grown in DMEM supplemented with 10% fetal calf serum. The medium was replaced 32 h after transfection by serum-free DMEM supplemented with 0.5% bovine serum albumin and ligands as indicated. Following 16 h of ligand incubation, the medium was removed, the cells were lysed in 100 μl of assay buffer (100 mM sodium phosphate buffer at pH 8.0, 4 mM 2-nitrophenol-β-D-pyranoside, 0.5% Triton X-100, 2 mM MgSO4, 0.1 mM MnCl2, and 40 mM β-mercaptoethanol) and incubated at room temperature. […]

CXCR4 [3] = biological target: T1, CXCR4; assay: [125I]-238D2 competition binding on membranes from HEK293T cells transiently expressing CXCR4
Protocol: as §1

CXCR4 [4] = biological target: T1, CXCR4; assay: [125I]-238D4 competition binding on membranes from HEK293T cells transiently expressing CXCR4
Protocol: as §1

[5] = membranes from HEK293T cells transiently expressing CXCR4
[6] = at highest test concentration of 0.5 μM (footnote a: no significant displacement; b: maximum not reached)

T1 sequence (P61073 whole entry): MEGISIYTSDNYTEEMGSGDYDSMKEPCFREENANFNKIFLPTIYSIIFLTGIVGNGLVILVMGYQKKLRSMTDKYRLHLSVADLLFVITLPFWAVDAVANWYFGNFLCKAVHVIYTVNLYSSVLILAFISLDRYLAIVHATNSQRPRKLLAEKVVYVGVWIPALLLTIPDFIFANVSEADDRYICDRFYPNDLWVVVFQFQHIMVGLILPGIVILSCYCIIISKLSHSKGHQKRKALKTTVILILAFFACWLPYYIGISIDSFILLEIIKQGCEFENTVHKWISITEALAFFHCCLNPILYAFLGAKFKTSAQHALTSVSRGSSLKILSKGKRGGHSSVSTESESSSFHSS

Rel. potency, relative to monovalent 238D2 (CXCR4 [1]): 27
Rel. potency, relative to monovalent 238D4 (CXCR4 [1]): 17
increase in affinity to CXCR4 over monovalent 238D2 (CXCR4 [1]; heterobivalent construct): 27 fold
increase in affinity to CXCR4 over monovalent 238D4 (CXCR4 [1]; heterobivalent construct): 17 fold
Displacem. (%) of [125I]-CXCL12 (maximal displacement), bivalent Nanobodies (CXCR4 [1]; [5]): 103 ± 4%
pKi, [125I]-CXCL12, bivalent Nanobodies (CXCR4 [1]; [5]): 9.44 ± 0.07
B1: 238D2-20GS-238D4: heterobivalent Nanobody, 238D2 linked to 238D4 by a 20 amino acid GGGGS linker (protein)
chain: EVQLVESGGGLVQTGGSLRLSCAASGFTFSSYAMSWVRQAPGKGLEWVSGIKSSGDSTRYAGSVKGRFTISRDNAKNMLYLQMYSLKPEDTAVYYCAKSRVSRTGLYTYDNRGQGTQVTVSSGGGGSGGGGSGGGGSGGGGSEVQLMESGGGLVQAGGSLRLSCAASGRTFNNYAMGWFRRAPGKEREFVAAITRSGVRSGVSAIYGDSVKDRFTISRDNAKNTLYLQMNSLKPEDTAVYTCAASAIGSGALRRFEYDYSGQGTQVTVSS
modifications: Nanobody, Nanobody constructs or fragments thereof
notes: heterobivalent Nanobody, 238D2 linked to 238D4 by a 20 amino acid GGGGS linker
inhibition of migration of Jurkat cells towards CXCL12 [2]: fully antagonized
Imax (%), Chemotaxis, bivalent Nanobodies [2]: 100 ± 4%
pKi, antagonism of the chemoattractant effects of CXCL12 [2]: 10.19±0.27

Rel. potency, relative to monovalent 238D2 (CXCR4 [1]): 28
Rel. potency, relative to monovalent 238D4 (CXCR4 [1]): 17
Displacem. (%) of [125I]-CXCL12 (maximal displacement), bivalent Nanobodies (CXCR4 [1]; [5]): 92 ± 6%
pKi, [125I]-CXCL12, bivalent Nanobodies (CXCR4 [1]; [5]): 9.45 ± 0.09
B2: 238D2-15GS-238D4: heterobivalent Nanobody, 238D2 linked to 238D4 by a 15 amino acid GGGGS linker (protein)
chain: EVQLVESGGGLVQTGGSLRLSCAASGFTFSSYAMSWVRQAPGKGLEWVSGIKSSGDSTRYAGSVKGRFTISRDNAKNMLYLQMYSLKPEDTAVYYCAKSRVSRTGLYTYDNRGQGTQVTVSSGGGGSGGGGSGGGGSEVQLMESGGGLVQAGGSLRLSCAASGRTFNNYAMGWFRRAPGKEREFVAAITRSGVRSGVSAIYGDSVKDRFTISRDNAKNTLYLQMNSLKPEDTAVYTCAASAIGSGALRRFEYDYSGQGTQVTVSS
modifications: Nanobody, Nanobody constructs or fragments thereof
notes: heterobivalent Nanobody, 238D2 linked to 238D4 by a 15 amino acid GGGGS linker
inhibition of migration of Jurkat cells towards CXCL12 [2]: fully antagonized
Imax (%), Chemotaxis, bivalent Nanobodies [2]: 107 ± 5%
pKi, antagonism of the chemoattractant effects of CXCL12 [2]: 9.86±0.04

Displacem. (%) of [125I]-CXCL12 at 0.5 μM (CXCR4 [1]; at highest test concentration of 0.5 μM (footnote a: no significant displacement)): 0^a %
affinity to CXCR4 (CXCR4 [1]; in words): low affinity
displacement of specifically bound [125I]-CXCL12 (CXCR4 [1]; purified ligands, highest Nanobody test concentration 0.5 μM): unable to displace
Binding (binding efficiency, competition binding with [125I]-CXCL12) (CXCR4 [1]; screening of Nanobody clone pools, membranes from HEK293T cells transiently expressing CXCR4): + (+ = 30-69%)
displacement of [125I]-238D2 from CXCR4 (CXCR4 [3]; [125I]-238D2 3 nM): displaces
Displacem. (%) of [125I]-238D2 at 0.5 μM (CXCR4 [3]; [6]): 45 ± 5^b %
binding mode at CXCR4 (CXCR4 [3]; displacement of labelled Nanobodies only at ≧100 nM): low affinity allosteric CXCR4 ligand
displacement of [125I]-238D4 from CXCR4 (CXCR4 [4]; [125I]-238D4 3 nM): displaces
Displacem. (%) of [125I]-238D4 at 0.5 μM (CXCR4 [4]; [6]): 38 ± 4^b %
B3: 238C5: Nanobody (VHH) raised against human CXCR4, SEQ ID NO: 243 (protein)
VHH: EVQLMESGGGLVQAGGSLRLACAASGFTFEDYAIGWFRKAPGKEREGVSCISGSDGSTTYADSVKGRFTISTDNAKNTVYLEMNSLKPEDTAVYYCAQQYGVGGRVVCPGPYEYDVWGQGTQVTVSS
modifications: Nanobody, Nanobody constructs or fragments thereof
